One experiment concerns the target RIF1 (UniProt Q5UIP0). Put plainly: biotin-peptide streptavidin pull-down, RIF1 blot.
Experiment [1] has as its target Cy5-53BP1(166-182) pS176/pS178; pS176/pS178 (S) (human) (UniProt Q12888). The experiment in a line: fluorescence polarisation.
Experiment [2] deals with T1, RIF1(1-980), recombinant N-terminal fragment with the HEAT repeat-rich NTD (human, UniProt Q5UIP0 1-980).
T1 sequence (looked up): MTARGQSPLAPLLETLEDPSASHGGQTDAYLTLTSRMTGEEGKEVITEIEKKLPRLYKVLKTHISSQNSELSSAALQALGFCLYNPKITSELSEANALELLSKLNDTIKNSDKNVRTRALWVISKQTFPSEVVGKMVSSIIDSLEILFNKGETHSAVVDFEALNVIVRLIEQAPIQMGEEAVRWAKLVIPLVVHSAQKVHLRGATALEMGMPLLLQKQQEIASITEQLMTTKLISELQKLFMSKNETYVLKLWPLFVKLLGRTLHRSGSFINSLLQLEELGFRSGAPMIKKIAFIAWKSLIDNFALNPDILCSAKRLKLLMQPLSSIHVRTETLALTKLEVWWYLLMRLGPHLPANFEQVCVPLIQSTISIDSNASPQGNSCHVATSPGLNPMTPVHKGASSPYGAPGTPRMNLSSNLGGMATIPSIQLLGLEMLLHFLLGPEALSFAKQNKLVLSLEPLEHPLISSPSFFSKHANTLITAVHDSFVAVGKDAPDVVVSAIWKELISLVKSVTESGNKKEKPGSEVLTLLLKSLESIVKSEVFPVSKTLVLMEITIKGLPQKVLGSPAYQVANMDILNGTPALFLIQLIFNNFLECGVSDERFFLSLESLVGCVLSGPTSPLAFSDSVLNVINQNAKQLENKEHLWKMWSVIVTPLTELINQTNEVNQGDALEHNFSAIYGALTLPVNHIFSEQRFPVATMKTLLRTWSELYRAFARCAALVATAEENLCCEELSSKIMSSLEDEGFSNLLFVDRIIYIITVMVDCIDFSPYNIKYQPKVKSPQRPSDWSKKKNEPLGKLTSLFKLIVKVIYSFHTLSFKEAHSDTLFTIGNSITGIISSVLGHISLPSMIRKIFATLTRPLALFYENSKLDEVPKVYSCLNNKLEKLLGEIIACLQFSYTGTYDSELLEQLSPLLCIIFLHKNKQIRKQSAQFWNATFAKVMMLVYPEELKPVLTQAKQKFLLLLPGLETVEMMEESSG
Put plainly: fluorescence polarisation. (Fluorescence polarisation rises when a labelled molecule tumbles more slowly, as on binding a larger partner.)

The text below walks through data of article PMC8995355 (Molecular cell, 2022).

Square brackets hold non-standard residues; d marks the D form. Ends that are not written are not given here. pS = N[C@@H](COP(=O)(O)O)C(=O)O

On to “53BP1 511-527 (from UniProt Q12888) pS518/pS520 peptide”, for which the “binding against the reference” value with RIF1 (reference: unphosphorylated peptide (S518/S520), sites S518,S520) is “stronger”.

In the case of “53BP1 686-702 (from UniProt Q12888) pT696/pS698 peptide”, the “binding against the reference” value in the experiment with RIF1 (reference: unphosphorylated peptide (T696/S698), sites T696,S698) is “stronger”.

A word on the Kd: it is the constant that tells how readily two partners part at equilibrium. A high value points to weaker binding. In turn, “RIF1(1-980), recombinant N-terminal fragment with the HEAT repeat-rich NTD (from UniProt Q5UIP0 1-980) (domain or fragment)” returned a Kd in experiment [1] of 2 µM.

On to Cy5-SQLGFGVLAL[pS]Q[pS]QDVE (peptide, UniProt Q12888 166-182, looked up) [Cy5-53BP1(166-182) pS176/pS178 E174A; pS176/pS178 (S) E174A], for which the binding result in experiment [2] was “binds”.

As to Cy5-SQLGFGVLELEQ[pS]QDVE (peptide, UniProt Q12888 166-182, looked up) [Cy5-53BP1(166-182) S176E/pS178; S176E/pS178 (S)], in experiment [2], the binding result was “binds”.
